From the supplement of paper PMC7125110
± gives the standard error. This sample holds only a part of the variants without activity.

B1: glmS ribozyme (parent)
chain: AUAAAAGCGCCAGAACUACAGAAAUGUAGUUGACGAGGAGGAGGUUUAUCGAAUUUUCGGCGGAUGCCUCCAAA

Columns and labels:
Conditions in all cases: with glucosamine-6-phosphate
glucosamine-6-phosphate [1] = variants of: B1; assay: self-cleavage kobs at 640 uM GlcN6P; higher = faster cleavage; RNA array
Outline: (§1)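 Ribozyme variants carrying barcodes were transcribed in situ on sequenced MiSeq chips by E. coli RNA polymerase and tracked at 37 °C with a hybridised Cy3 probe. They were exposed to 40 μM to 10 mM glucosamine-6-phosphate in HEPES/KCl/Mg(OAc)2 buffer. kobs came from exponential decay fits of normalised per-tile medians, and kcat and KM from weighted Michaelis–Menten fits.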

glucosamine-6-phosphate [2] = variants of: B1; assay: self-cleavage kobs at 2500 uM GlcN6P; higher = faster cleavage; RNA array
Outline: as §1

glucosamine-6-phosphate [3] = variants of: B1; assay: self-cleavage kobs at 10000 uM GlcN6P; higher = faster cleavage; RNA array
Outline: as §1

A12C U49G C67U
self-cleavage kobs at 640 uM GlcN6P (glucosamine-6-phosphate [1]): 5e-05 ± 1.4e-05 s⁻¹
self-cleavage kobs at 2500 uM GlcN6P (glucosamine-6-phosphate [2]): 7.89e-05 ± 1.5e-05 s⁻¹

G32A A48U U65C
self-cleavage kobs at 640 uM GlcN6P (glucosamine-6-phosphate [1]): < 1e-05 s⁻¹

A6C A39G U57G
self-cleavage kobs at 640 uM GlcN6P (glucosamine-6-phosphate [1]): < 1e-05 s⁻¹
self-cleavage kobs at 2500 uM GlcN6P (glucosamine-6-phosphate [2]): < 1e-05 s⁻¹

A6G G29U G62C
self-cleavage kobs at 640 uM GlcN6P (glucosamine-6-phosphate [1]): < 1e-05 s⁻¹

C16A G63U C67U
self-cleavage kobs at 640 uM GlcN6P (glucosamine-6-phosphate [1]): 0.000112 ± 4.7e-05 s⁻¹

G51C A64C
self-cleavage kobs at 640 uM GlcN6P (glucosamine-6-phosphate [1]): < 1e-05 s⁻¹
self-cleavage kobs at 10000 uM GlcN6P (glucosamine-6-phosphate [3]): < 1e-05 s⁻¹

G13A C16G G29U G37A G40U
self-cleavage kobs at 640 uM GlcN6P (glucosamine-6-phosphate [1]): < 1e-05 s⁻¹

A12U A14G U30G A33G G66A
self-cleavage kobs at 640 uM GlcN6P (glucosamine-6-phosphate [1]): < 1e-05 s⁻¹
self-cleavage kobs at 2500 uM GlcN6P (glucosamine-6-phosphate [2]): < 1e-05 s⁻¹

C11A U55G C61G G62C
self-cleavage kobs at 640 uM GlcN6P (glucosamine-6-phosphate [1]): < 1e-05 s⁻¹

A12C A14U C16G G35C G62U
self-cleavage kobs at 640 uM GlcN6P (glucosamine-6-phosphate [1]): < 1e-05 s⁻¹

G9C A53C C70U
self-cleavage kobs at 640 uM GlcN6P (glucosamine-6-phosphate [1]): < 1e-05 s⁻¹
self-cleavage kobs at 2500 uM GlcN6P (glucosamine-6-phosphate [2]): < 1e-05 s⁻¹

C34G G41C C71U
self-cleavage kobs at 640 uM GlcN6P (glucosamine-6-phosphate [1]): < 1e-05 s⁻¹

A39U U45G A52G C70A
self-cleavage kobs at 640 uM GlcN6P (glucosamine-6-phosphate [1]): < 1e-05 s⁻¹

U46A A53G U65G
self-cleavage kobs at 640 uM GlcN6P (glucosamine-6-phosphate [1]): 0.000479 ± 0.00011 s⁻¹

G7C C71A
self-cleavage kobs at 640 uM GlcN6P (glucosamine-6-phosphate [1]): < 1e-05 s⁻¹
self-cleavage kobs at 10000 uM GlcN6P (glucosamine-6-phosphate [3]): < 1e-05 s⁻¹

G9C C67G C68U
self-cleavage kobs at 640 uM GlcN6P (glucosamine-6-phosphate [1]): < 1e-05 s⁻¹
self-cleavage kobs at 2500 uM GlcN6P (glucosamine-6-phosphate [2]): < 1e-05 s⁻¹

G9C G32U C50U
self-cleavage kobs at 640 uM GlcN6P (glucosamine-6-phosphate [1]): < 1e-05 s⁻¹

C16U A39U A48U
self-cleavage kobs at 640 uM GlcN6P (glucosamine-6-phosphate [1]): 3.71e-05 ± 1.6e-05 s⁻¹
self-cleavage kobs at 2500 uM GlcN6P (glucosamine-6-phosphate [2]): 7.54e-05 ± 1.5e-05 s⁻¹

C8U C19A G35A A36U G51U
self-cleavage kobs at 640 uM GlcN6P (glucosamine-6-phosphate [1]): < 1e-05 s⁻¹

U45G G60U G62C C70U
self-cleavage kobs at 640 uM GlcN6P (glucosamine-6-phosphate [1]): < 1e-05 s⁻¹
self-cleavage kobs at 2500 uM GlcN6P (glucosamine-6-phosphate [2]): < 1e-05 s⁻¹

C8U C50A
self-cleavage kobs at 640 uM GlcN6P (glucosamine-6-phosphate [1]): < 1e-05 s⁻¹
self-cleavage kobs at 2500 uM GlcN6P (glucosamine-6-phosphate [2]): < 1e-05 s⁻¹
self-cleavage kobs at 10000 uM GlcN6P (glucosamine-6-phosphate [3]): < 1e-05 s⁻¹

A6U G41A C58A
self-cleavage kobs at 640 uM GlcN6P (glucosamine-6-phosphate [1]): < 1e-05 s⁻¹

A39C U45G C70G
self-cleavage kobs at 640 uM GlcN6P (glucosamine-6-phosphate [1]): < 1e-05 s⁻¹
self-cleavage kobs at 2500 uM GlcN6P (glucosamine-6-phosphate [2]): < 1e-05 s⁻¹

G7U G35U A42G
self-cleavage kobs at 640 uM GlcN6P (glucosamine-6-phosphate [1]): < 1e-05 s⁻¹
self-cleavage kobs at 2500 uM GlcN6P (glucosamine-6-phosphate [2]): < 1e-05 s⁻¹

G37U A64U
self-cleavage kobs at 640 uM GlcN6P (glucosamine-6-phosphate [1]): < 1e-05 s⁻¹
self-cleavage kobs at 2500 uM GlcN6P (glucosamine-6-phosphate [2]): < 1e-05 s⁻¹

C10U A12U G29C G41U C70U
self-cleavage kobs at 640 uM GlcN6P (glucosamine-6-phosphate [1]): < 1e-05 s⁻¹
self-cleavage kobs at 2500 uM GlcN6P (glucosamine-6-phosphate [2]): < 1e-05 s⁻¹

G32A G35U G38C A39C U49G
self-cleavage kobs at 640 uM GlcN6P (glucosamine-6-phosphate [1]): < 1e-05 s⁻¹
self-cleavage kobs at 2500 uM GlcN6P (glucosamine-6-phosphate [2]): < 1e-05 s⁻¹

C8U G9C C50A G51U G60U
self-cleavage kobs at 640 uM GlcN6P (glucosamine-6-phosphate [1]): < 1e-05 s⁻¹

C11U G38C G51U U65A
self-cleavage kobs at 640 uM GlcN6P (glucosamine-6-phosphate [1]): < 1e-05 s⁻¹

G29U G32U G38A C61A C67U
self-cleavage kobs at 640 uM GlcN6P (glucosamine-6-phosphate [1]): 0.000133 ± 3.8e-05 s⁻¹
self-cleavage kobs at 2500 uM GlcN6P (glucosamine-6-phosphate [2]): 0.00034 ± 9.8e-05 s⁻¹

U49A C50A C70G
self-cleavage kobs at 640 uM GlcN6P (glucosamine-6-phosphate [1]): 5.26e-05 ± 2.2e-05 s⁻¹
self-cleavage kobs at 2500 uM GlcN6P (glucosamine-6-phosphate [2]): 4.46e-05 ± 2e-05 s⁻¹

G32C A48U A64C
self-cleavage kobs at 640 uM GlcN6P (glucosamine-6-phosphate [1]): < 1e-05 s⁻¹

C16U A36U G59U A64U
self-cleavage kobs at 640 uM GlcN6P (glucosamine-6-phosphate [1]): < 1e-05 s⁻¹

U55A U57G
self-cleavage kobs at 640 uM GlcN6P (glucosamine-6-phosphate [1]): 2.18e-05 ± 1e-05 s⁻¹
self-cleavage kobs at 2500 uM GlcN6P (glucosamine-6-phosphate [2]): 2.56e-05 ± 7.4e-06 s⁻¹
self-cleavage kobs at 10000 uM GlcN6P (glucosamine-6-phosphate [3]): 7.86e-05 ± 1.2e-05 s⁻¹
